{
  "source": "patent US20110288485A1",
  "about": "“MICRONEEDLE DEVICE” (HISAMITSU PHARMACEUTICAL CO., INC., priority 2008, published 2011)",
  "key": {"[1]": {"test": "In vitro human skin penetration test by microneedles (parathyroid hormone)", "type": "in vitro ADME", "conditions": "microneedles height 500 μm compared with 300 μm; 40 μg hPTH coated; attachment six hours", "from_the_text": "(§1) Two types of microneedles made of a polylactic acid that differ in the length of the needle part (h: 300 μm and 500 μm) were used. The shape of either of these two types of microneedles was square pyramid, and the density of the microneedle was 400 needles/cm^2. Also, the area of either one of microneedle devices was 1 cm^2.\nA coating liquid prepared according to the below-described technique (30% human parathyroid hormone hPTH (1-34) (the product of Sichuan Unibiochem Co., Ltd.), 7.5% pullulan, and 0.1% Tween 20) was coated on a microneedle device similarly to Example 1, and after piercing excised human skin with this microneedle device by finger pressing (2 kg/patch), the device and the skin were placed on an acrylic cell for sampling over time. As a receptor layer, physiological saline containing 0.01% benzalkonium chloride was used, and 1 mL of a receptor liquid collected per sampling time was measured by a gamma counter to calculate a PTH concentration. It is to be noted that a period of attachment of the microneedle device was set at six hours. The results of the sampling are as shown in the graph in FIG. 5.\n(2) After coating microneedles with the coating solution prepared in (1), radiation of each pharmaceutical preparation was counted using a NaI counter to estimate the content of PTH coated on the needle part. […]"}, "[2]": {"test": "Hairless rat in vivo absorption test by microneedles (parathyroid hormone)", "from_the_text": "as §1\nFirstly, the abdomen of a hairless rat was pierced with a microneedle device in which tips of the needles were coated with a similar coating liquid to Example 2 (30% human parathyroid hormone hPTH (1-34) (the product of Sichuan Unibiochem Co., Ltd.), 7.5% pullulan, and 0.1% Tween 20) by a similar technique to Example 1 by hand pushing, and the microneedle device was covered with a foam tape (the product of 3M Company) and left attached for six hours. Then, blood was collected over time (amount of blood collected 200 μL/times) to measure the serum hPTH concentration with a Rat PTH IRMA kit (the product of Immutopics International). Also, in a subcutaneous administration group, 0.2 mg/mL hPTH in physiological saline was prepared, 40 μL of which was subcutaneously administered to the back of a hairless rat, and the PTH concentration was similarly measured."}, "[3]": {"test": "PTH storage method: acceleration stability test of the content, form of package and stabilizing agent (Example 6)", "type": "physicochemical", "experimental": "PTH was prepared at 40 mg/mL with water for injection, which was then dispensed to serve as a drug solution. It was further diluted to 20 mg/mL with water for injection before experiment, 20 μL of which was added dropwise to a microneedle base (400 μg/patch), which served as a medicinal unit.\n(§2) A medicinal unit sample for screening of a stabilizing agent was fully dried and enclosed in an aluminum packing material, sandwiched between silicon treated liners, with OZO (OZO kagakugiken Co., Ltd.). It was then stored at 25° C., 40° C., 50° C., and 60° C. to perform an acceleration test to conduct a stability test of the content over time (n=3). The content was returned to room temperature, and then extracted with 4 mL of an extraction liquid, followed by measurement by HPLC.\nExtraction liquid: a 0.01% benzalkonium chloride solution or 2% TMTDAB, 1% sodium chloride, and 10 mM acetic acid buffer\nDetector: an ultraviolet absorptiometer (measurement wavelength: 220 nm)\nColumn temperature: 25° C."}, "[4]": {"test": "Study on the addition amount of sucrose to PTH, stability of content (Example 7)", "type": "physicochemical", "experimental": "as §2\nOther than this, the study was conducted in the same manner as the aforementioned Examples."}, "[5]": {"test": "Study on drying time of a sucrose additive to PTH, stability of content (Example 8)", "type": "physicochemical", "conditions": "60° C.", "experimental": "as §2\nUsing this solution, a drug solution unit was produced, and preservation qualities resulting from various drying times were examined under a nitrogen stream."}, "[6]": {"test": "PTH/pullulan coating liquid: solubility evaluation and amount of PTH coated on microneedles (Example 9)", "type": "physicochemical", "conditions": "30% or 40% PTH solution with small amount of surfactant (Tween 20)", "experimental": "In order to optimize a ratio between PTH (1-34) (the product of Sichuan Unibiochem Co., Ltd.) and a coating carrier, which is a water-soluble high molecular weight polymer, a study was conducted using PTH and a coating carrier (pullulan). […] The concentration of pullulan was adjusted based on the viscosity of the solution at the time of dissolving, and the range of the concentration of pullulan was set to 0 to 30% (w/w). It is to be noted that, as the pullulan, one recited in Japanese Pharmacopeia (the product of Hayashibara Biochemical Labs., Inc.) was used. Further, in order to increase the adhesiveness to the needles, a study was also conducted for the case in which a surfactant (Tween20, 0.1%) was added as shown in Table 7.\nEvaluation of solubility of PTH was performed after adjusting each solution, and a coating liquid capable of adjusting a uniform solution was subjected to an operation for coating of microneedles made of a polylactic acid. Following the aforementioned method as a coating method, coating was performed only on the tip part of the needles with the use of a metal mask (only the needle part was coated using a metal mask having a diameter of the aperture: 220 μm and thickness: 100 μm)."}},
  "data": [
    {"substance": "human parathyroid hormone hPTH (1-34)", "values": [
      {"measurement": "skin penetration property", "setting": "[1]", "value": "efficient drug delivery is made possible"},
      {"measurement": "initial rise in the blood concentration, reaching maximum blood concentration", "setting": "[2]; microneedle device vs subcutaneous administration", "value": "more rapidly reached than subcutaneous administration"},
      {"measurement": "amount of absorption (serum hPTH)", "setting": "[2]; microneedle length 300 and 500 μm, attached six hours", "value": "increases in the amount of absorption dependent on the length of the microneedles"},
      {"measurement": "residual ratio (%) relative to the initial value", "setting": "[3]; 40° C., 1W", "value": "100.22 ± 0.53", "unit": "%"},
      {"measurement": "residual ratio (%) relative to the initial value", "setting": "[3]; 40° C., 2W", "value": "97.64 ± 0.72", "unit": "%"},
      {"measurement": "residual ratio (%) relative to the initial value", "setting": "[3]; 40° C., 4W", "value": "97.02 ± 0.65", "unit": "%"},
      {"measurement": "residual ratio (%) relative to the initial value", "setting": "[3]; 50° C., 1W", "value": "94.65 ± 1.55", "unit": "%"},
      {"measurement": "residual ratio (%) relative to the initial value", "setting": "[3]; 50° C., 2W", "value": "94.10 ± 2.25", "unit": "%"},
      {"measurement": "residual ratio (%) relative to the initial value", "setting": "[3]; 50° C., 4W", "value": "84.26 ± 1.19", "unit": "%"},
      {"measurement": "residual ratio (%) relative to the initial value", "setting": "[3]; 60° C., 1W", "value": "89.50 ± 1.11", "unit": "%"},
      {"measurement": "residual ratio (%) relative to the initial value", "setting": "[3]; 60° C., 2W", "value": "88.22 ± 0.82", "unit": "%"},
      {"measurement": "residual ratio (%) relative to the initial value", "setting": "[3]; 60° C., 4W", "value": "71.80 ± 1.94", "unit": "%"},
      {"measurement": "residual ratio (%) relative to the initial value", "setting": "[4]; 40° C., 1W", "value": "83.26 ± 0.57", "unit": "%"},
      {"measurement": "residual ratio (%) relative to the initial value", "setting": "[4]; 40° C., 4W", "value": "92.82 ± 0.74", "unit": "%"},
      {"measurement": "residual ratio (%) relative to the initial value", "setting": "[4]; 50° C., 4W", "value": "80.83 ± 4.57", "unit": "%"},
      {"measurement": "residual ratio (%) relative to the initial value", "setting": "[4]; 60° C., 4W", "value": "76.55 ± 3.95", "unit": "%"},
      {"measurement": "residual ratio (%) relative to the initial value", "setting": "[5]; drying time 15 minutes, 1W", "value": "85.35 ± 0.64", "unit": "%"},
      {"measurement": "residual ratio (%) relative to the initial value", "setting": "[5]; drying time 15 minutes, 4W", "value": "75.43 ± 1.69", "unit": "%"},
      {"measurement": "residual ratio (%) relative to the initial value", "setting": "[5]; drying time 30 minutes, 1W", "value": "85.53 ± 0.49", "unit": "%"},
      {"measurement": "residual ratio (%) relative to the initial value", "setting": "[5]; drying time 30 minutes, 4W", "value": "73.10 ± 0.36", "unit": "%"},
      {"measurement": "residual ratio (%) relative to the initial value", "setting": "[5]; drying time 1 hour, 1W", "value": "84.62 ± 0.72", "unit": "%"},
      {"measurement": "residual ratio (%) relative to the initial value", "setting": "[5]; drying time 1 hour, 4W", "value": "75.56 ± 1.69", "unit": "%"},
      {"measurement": "residual ratio (%) relative to the initial value", "setting": "[5]; drying time 2 hours, 1W", "value": "86.01 ± 1.07", "unit": "%"},
      {"measurement": "residual ratio (%) relative to the initial value", "setting": "[5]; drying time 2 hours, 4W", "value": "73.93 ± 1.41", "unit": "%"},
      {"measurement": "residual ratio (%) relative to the initial value", "setting": "[5]; drying time 16 hours, 1W", "value": "87.08 ± 0.72", "unit": "%"},
      {"measurement": "residual ratio (%) relative to the initial value", "setting": "[5]; drying time 16 hours, 4W", "value": "72.71 ± 2.01", "unit": "%"},
      {"measurement": "amount of PTH attached by single coating operation", "setting": "[6]", "value": "≥ 20", "unit": "µg"}
    ]}
  ]
}
